Experimental data: PMC2692654
Read-outs that look alike come from different tables or passages of the source.

T1: M.HhaI methyltransferase (UniProt P05102 1-327)
T1 sequence: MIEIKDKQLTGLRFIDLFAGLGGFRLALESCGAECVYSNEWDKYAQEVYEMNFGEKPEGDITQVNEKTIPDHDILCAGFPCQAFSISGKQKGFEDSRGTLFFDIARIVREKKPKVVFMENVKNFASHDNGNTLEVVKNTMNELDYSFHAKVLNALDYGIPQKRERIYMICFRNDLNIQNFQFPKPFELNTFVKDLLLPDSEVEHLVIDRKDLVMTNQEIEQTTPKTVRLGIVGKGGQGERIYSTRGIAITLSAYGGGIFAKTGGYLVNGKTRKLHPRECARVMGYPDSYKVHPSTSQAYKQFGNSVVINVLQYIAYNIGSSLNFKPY


How the values were obtained:
[1] = molecular target: T1, M.HhaI methyltransferase; test: electrochemical E-DNA sensor
[2] = molecular target: T1, M.HhaI methyltransferase; test: electrochemical E-DNA sensor; remark: listed apart in the source

Binder	binding result [1]	binding result [2]
AAGACGAGCGCATGTTTATGCGCTC (structured_DNA, 5' HS-(CH2)6 thiol; internal T16 C5-linked methylene blue) [M.HhaI probe]	binds	–
CGGGCTATATAAGGGGCGTTTTCTTATATAG (structured_DNA, 5' HS-(CH2)6 thiol; internal T10 C5-linked methylene blue) [TATA probe]	–	no binding
